Experiment: yeast display, Sf9 membrane polyspecificity reagent, FACS + sequencing; frameworks hold sequencing errors
How it was run: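 Galactose-induced (36–48 hours) yeast carrying a synthetic nanobody display library were exposed to 10% biotinylated, detergent-solubilized Sf9 membrane reagent at 4 °C for 1 hour. FACS followed streptavidin microbead enrichment, using low and high (top ~1%) gates for expression (anti-HA) and reagent binding (streptavidin). Colony PCR, MiSeq 2 × 250 sequencing and CDR-length filtering followed. Labels for polyreactivity reflect the gate of origin.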

Sequence	polyreactivity (PSR sort gate)
QDQLVESGGGLVQAGGSLRLSCAASGFTFSRYAMGWYRQAPGKERELVAAINYSGGSTYYADSVKGRFTISRDNAKNTVYLQMNSLKPEDTAVYYCATGGTKPAYKGHYYWGQGTQVTVSS	low polyreactivity
QVQLVESGGGLVQAGGSLRLSCAASGSTFNNYAMGWYSQAPGKERELVAAITRGGGSTHYADSVKGRFTISRDNAKKTVYFQMNCRKPEDTAVYYCAVAGFDRGQYVRYYYWGQGTQVTVSS	low polyreactivity
QVQLVESGGGLVQAGGSLRLSCAASGFIIWYSAMGWYRQAPGKERELVAAIRSGGSTYYADSVKGRFTISRDNAMNTVYLQMNSLKPEDTAVYYCAAGKNVYYFSRSKYGYDYWGQGTQVTVSS	high polyreactivity
QVQLVESGGGLVQAGGSLRLSCAASGFTFGSNAMGWYRQAPGKERELVADITVSGGSTYYADSVKGRFTISRDNAKNTVYLQMNSLKPEDTAVYYCAKDPRTYLDYDYWGQGTQVNVSS	low polyreactivity
QVQLVESGGGLVQAGCSLRLSCAASGFTYARYTMGWYRQAPGKERELVAAISSRGSSTYYADSVKGRFTISRDNAKNSVYLQMNCLKPEDTAVYYCAAPPRYGYDYWGQGTQVTVSS	high polyreactivity
QVQLVESGGGLVQAGGSLRLICAASGFIFRRYAMGWYRQSPGKERELVAAISSRGGSTYYADSVKGRFTISRDNAKNTVYLQMNSLKPEDTAVYYCAAYDAVTYPFDYWGQGTQVTVSS	high polyreactivity
QVQLVESGGGIVQAGGSLRLSCAASGSTIRYYAMGWYRQAPGKERELVAAITYSGTRTYYADSVKGRFTISRDNAKTTVYLQMNSLKPEDTAVYYCNAVAKHRGVGIYTPYDYWGQGTQVTVSS	high polyreactivity
QVQLVESGGGLVQAGGSLRLSCAASGRIFARNAMGWSRQAPGKERELVAASSSGGGSTYYADSVKGRFTISRDNAKNTVYLRMISLKPEDTAVYYCAARTRITYDWGQGTQVTVSS	low polyreactivity
QVQLVESRGGVVQAGGSLRLSSAASGTFVYAMGWYRQAPGKERELVAAISYSGGSTYYADSVKGRFTISRDNAKNTVYLQMNSLKPEDTAVYYCAARTTLSYGYDYWGQGTQVTVSS	high polyreactivity
QVQLVESGGGLVQAGGSLRLSCAASGSIFWRYTMGWYRQAPGKERELVAAISTRGGSTYYADSVKGRFTISRDNAKNTVYLQMNSLKPEDTAVYYCNAVEGSRLPYDYWGQGTQVTVSS	low polyreactivity
QVQLQESGGGLVQAGGSLRLSCAESGTIFGWDRMGRYRQAPGKERELVATIDNRGSTNYADSVKGRFTISRDNAKNTVYPQMNSLKPDDTAVYYCAVVGPTPQYHLYWGQGTQVTVSS	high polyreactivity
QVQLGESGGGLVQAGGSLRLSCAASGSTFVDNTMGWYRQAPGKERELVAAITRSGGSTYYADSVKGRFTISRDNAKNTVYLQMNSLNPEDTAVYYCATYPYSPYFYVYVEPYVYWGQGTQVTVSS	low polyreactivity
QVQLVESGGGLVQAGGSLRLSCAASGSTFVTNVMGWYRQATGKERELVAAISYSGGNTYYEDSVKGRFTISRDNAKNTVYLQMNSLKPEDTAVYYCAAKYRRWGMEYWGQGTQVTVSS	high polyreactivity
QVQLVESGGGLVQAGGSLRLSCAATGSIFYAYAMGWYRQAPGKERELVAGISGGGSTNYADSVKGRFTISRDNAKNTVYLQMNSLKPEDTAVYYCAADGWLSATYDGLPDSDSWGQGTQVTVSS	high polyreactivity
QVQLVESGGGLVQAGGSLRLSCAASGRILYVYVMGWYRQGPGKASELVAAISRRGGGTSYADSVKGLFTISRDNAKNTVYLQLNSLKPEDTTVYYCAASSTEFPTDYLAIDDYWGQGTQVTVSS	low polyreactivity
QVQLVESGGGLVQAGGSLRLSCAASGSIFDPYAMGWYRQAPGKERELVARISRSGGSTNYADSVKGRFTISRDNAKNTVYLQMNSLKPEDTAVYYCNTPSSREMDYWGQGTQVTVSS	low polyreactivity
QVQLVESGGGLVQAGGSHRLSCAASGSTFFSYAMGWYRQAPGKERELVAAITSNGGTTHYADSVKGRFTISRDNAKNTVYLQMNSLKPEDTAVYYCAKAQGHVRGSRGLQGGRYDYWGQGTQVTVSS	low polyreactivity
QVQLVESGGGLLQAGGSLRLSSAASGFIFNWYAMGGYRQAPGKERELVAAITSGGSTNYADSVKGRFTISRDNAKNTVYLQMNSLKPEDTAVYYCAARHWRRYGYCGQGTQVTVSS	high polyreactivity
QVQLQESGGGLVQAGGCLRLSCAASGTSFDPDYMGWYHQAPGKERELVASISLGRITYNADSVKGRFTINRDNAKNTVYLQMNSLKPEDTAVYYCAVRVETIYYYSYWGQGTQVTVSS	high polyreactivity
QVQLVESGGGLVQAGGSLRLSCAPSGRIFAGYAMGWYRQAHGKERELVAAISWRGTSTYYADSVKGRFTISRDNAKNTVYLQMNSLKPEDTAVYYCAARYTKGMYYWGQGTQVTVSS	high polyreactivity
QDQLVESVGGLVQAGGSLRLSCAASGRIVKYAMGWYRQAPGKERELVAAISGSGGTTYYADSVKWRFTISRDNAKNTVYLQMNSQKPEDTAVYYCNKTPRNLRILQHSSQSMDYWGQGTQVTVSS	high polyreactivity
QVQLVESGGGLVQAGGSLRLSCAASGYTLYLNAMGWYSQAPGKERELVARISGGGSTNYADYVKGRFTMSRDNAKNTVYLQMNSLKPEDTAVYYCAATIFAYGYRSFKLDYWGQGTQVTVSS	low polyreactivity

Sequence	polyreactivity (PSR sort gate)
QVQLVESGGGLVQARGSLRLSCAASGFIFSYYAMGWYRQAPGKERELVAAISSSGGTTYADSVKGRFTISRDNAKNTVYLQMNSLKPEDTAVYYCARVQYWFYKPMYYWGQGTQVTVSS	high polyreactivity
QVQLVESGGGLVQAGGSLRLSCAASGSIFVYNAMGWYRQAPGKERELVAAISTSGGRTYYADSVKGRFTISRDNAKNTVYLQMNSLKPEDTAVYYCNALGYWRRVVDGFDYWGQGTQVTVSS	high polyreactivity
QVQLVESGGGLVQAGGSLRLSCAASGGTFLVYAMGWYRQAPGKERELVAAITRSGGSTYYADSVKGRFTISRDNAKNTVYLQMNSLKPEDTAVYYCNARYRNSGRYWDWYYYWGQGTQVTVSS	high polyreactivity
QVQLVESGGGLVQAGGSLRLSSAASGSTFTLYAMGWYRQAPGKERELVATITGSGGSTNYADSVKGRFTISRDNAKNTVYLQMNSLKPEDTAVYYCAADYAVYSFTEFNYWGQGTQVTVSS	high polyreactivity
QVQLVESGGGLVQAGGSLRLSCAASGLTFPYYVMGWYRQAPGKERELVAAIDDGGGSTYYADSVKGRFTISRDNAKNTVYLQMNSLKPEDTAVYYCAAQVDYLAHYGYWGQGTQVTVSS	low polyreactivity
QVQLVESGAGLVQAGGSLRLSCAASGRTFTSNSMGLYIQAPGKERELVASISFRGGRTYYADSVKVRFTISRDNAKNTVYLQMNSLKPEDTAVYYCVSGTKRTGYGYWGQGTLVTVSS	high polyreactivity
QVQLVESGGGLVQAGGSLRLSCAASGLTFDGNTMGWYRQAPGKERELVAAISIDGGNTYADSVKGRFTISRDNAKNTVYLQMNSLKPEDTAVYYDYWGQGTEVTVSS	low polyreactivity
QVQLVESGGGLVQAGGSLRLSCAASGSIFGRNALGWSRQAPGKERELVAAIRDSGTSTYYADSVKGRFTISRDNAKNTVYLQMNSLKPEDTAVYYCAASRRPGYTYGYWGQGTQVTVSS	high polyreactivity
QDQLVESGGALVQAGGSLRLSCAASGFTFYKNAMGWYRQAPGKERELVAAISADGGRTYYADSVKGRFTISRDNAKNTVYLQMNSLKPEDTAVYYCAADKRLFRRPKTYDLWGQGTQVTVSS	high polyreactivity
QVQLVESGGGLVQAGGSLRLSCAASGSISGSYAMGWYRQAPGKERELVASITTSGGGTYYADSVKGRFTISRDNAKNTVYLQMNSLKPEDTAVYYCAVEYGYPYAGLDYWGQGTQVTVSS	low polyreactivity
QVQLQESRGGLVQAGGSLRLICAASGSISCPHVMGWYRQAPGKEREFVAAINVGANTYYADNVKGRFTISRDNAKNTVYLQKNSLKPEATAVYYCAAVYYGDIGHEYWGQGTQVTVSC	low polyreactivity
QVQLVESGGGLVQAGGSLRLSCAASGRTFRVYAMGWYRQAPGKEREFVAAISYSGGRTYYADSVKGRFTISRDNAKNTVYLQMNSLKPEDTAVYYCAAKTNRGSYSYDYWGQGTQVTVSS	high polyreactivity
QVQLVESGGGLVQAGGSLRLSCAASGIIFRYYAMGWYRQAPGKERELVAAISSSGVSTYYADSVKGRFTISRDNAKNNVYLQMNSLKPEDTAVYYCAAVTTWRMDYWGQGTQVNVSS	high polyreactivity
QVQLVESGGGLVQAGGSLRSSCASSGSIFDGNTMGWYRQAPGKERELVAAISYSGGSTYYADSVKGRFTISRDNAKNTVYLQMNSLKPEDTAVYYCAAEWYGYQEDDYWGQGTQVTVSS	low polyreactivity
QVQLVESGGGLVQAGGSLRLSCAASGRIFIVYAMGRYRQAPGKERELVAAISWNGGRTYYADSVKGRFTISRDNAKNTVYLQMNSLKPEDTAVYYCNAVALYPYTTYDYWGQGTQVTVSS	high polyreactivity
QVQLVESGGGLVQAGGSLRLSCAASGSTFDNYAMGWYRQAPGKERELVAAINSRGGRTYYADSVKGRFTISRDNAKNTVYLQMNSLKPEDTAVYYCAAVGATHRFDYWGQGTQVTVSS	high polyreactivity
QVQLVESGGGLVQAGGSLRLSCAATGSIFASYAMGWYRQAPGKERELVASITRVDSTNYADSVKGRFTISRDNAKNTVYLQMNSLKPEDTAVYYCAADYYIVLTKSDGLFGSWGQGTQVTVSS	low polyreactivity
QVQLVESGGGLVQAGGSLRLSCAASGSTFPFYAMGWYRQAPGKERELVAAIPSGGSTYADSVKGRFTISRDNAKNTVYLQMNSLKPEDTAVYYCAASWPRWWRFGYWGQGTQVTVSS	low polyreactivity
QVQLVESGGGLVQAGGSLRLSCAASGLTFQYNAMGWYRQAPGKERELVAANSRSGGRTYYADSVKGRFTISRDNAKNTVYLQLNSLKPEDTAVYYCAARDRSTRSDLTSYSVLYGNYYWGQGTQVTVSS	high polyreactivity
QVQLVESGGGLVQAGGSLRLSCAASGSTLDGNTMGWYRQAPGKERELVAAISRSGTSTYYADSVKGRFTISRDNAKNTVYLQMNSLKPEDTAVYYCNAEASDLYYVYLEYDYWGQGTQVTVSS	low polyreactivity
QVHHVESGGGLVQAGGSLRLSCAASGITFSSYAMGWYRQAPRKERELVAAISYGGGNTYYADSVKGRFTISRDNAKNTVYLQMNSLKPEDTAVYYCNTLYTSYSGLDYWGQGTQVTVSS	high polyreactivity
